Molecular target: Raf-1 (UniProt P04049)
Experiment: FLAG IP, GFP-Raf-1 blot
Details: reference: FLAG-MST2 wild type; sites Y81

Substance: MST2 (from UniProt Q13188) FLAG-MST2 Y81F
- binding against the reference: stronger

From publication PMC3348883
